Experiments:
human SST-R2 [1] = target: T1, human SST-R2 (human, UniProt P30874); assay: competition, SRIF-14 displacement
human SST-R2 [2] = target: T1, human SST-R2; assay: competition, 125I-Tyr11-SRIF-14 radioligand

T1 sequence (P30874 whole entry): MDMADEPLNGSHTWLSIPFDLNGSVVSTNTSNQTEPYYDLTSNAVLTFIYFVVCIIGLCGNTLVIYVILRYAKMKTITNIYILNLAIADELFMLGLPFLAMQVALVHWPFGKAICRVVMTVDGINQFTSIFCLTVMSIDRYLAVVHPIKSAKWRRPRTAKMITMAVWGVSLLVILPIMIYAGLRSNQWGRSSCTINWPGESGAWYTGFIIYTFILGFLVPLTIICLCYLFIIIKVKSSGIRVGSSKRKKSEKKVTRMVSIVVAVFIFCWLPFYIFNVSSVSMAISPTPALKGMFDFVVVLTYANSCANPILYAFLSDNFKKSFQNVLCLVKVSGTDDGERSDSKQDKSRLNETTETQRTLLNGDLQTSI

B1: YS-1-54 (peptide)
chain: GFWWKTFG
modifications: not fully specified; PTR 3213 core; fluorescein thiourea, no linker; cyclic GlyS2* to GlyS2*; D-Trp; C-terminal amide
Human SST-R2 [1]
  IC50: 48 nM

B2: YS-1-86 (peptide)
chain: FCFWWKTFG
modifications: not fully specified; PTR 3207 core; 5-(aminothionyl)fluorescein-GABA conjugate; cyclic Cys* to GlyS2*; D-Phe1, D-Trp; C-terminal amide
Human SST-R2 [2]
  IC50: 1.7 nM

B3: YS-1-58 (peptide)
chain: FGFWWKTFG
modifications: not fully specified; PTR 3219 core; fluorescein thiourea, Gly linker; cyclic GlyS2* to GlyS2*; D-Phe1, D-Trp; C-terminal amide
Human SST-R2 [1]
  IC50: 18 nM

B4: YS-1-48 (peptide)
chain: GFWWKTFG
modifications: not fully specified; PTR 3213 core; 5- and 6-carboxyfluorescein-GABA conjugate; cyclic GlyS2* to GlyS2*; D-Trp; C-terminal amide
Human SST-R2 [2]
  IC50: 5.4 nM

B5: PTR 1007A-01 (peptide)
chain: XFWWKTFG
modifications: X = Dab; 5- and 6-carboxyfluorescein conjugate; backbone cyclic (Dab* to GlyC3*); D-Trp4; C-terminal GlyC3, amide
Human SST-R2 [2]
  IC50: 78 nM

B6: YS-1-52 (peptide)
chain: GFWWKTFG
modifications: not fully specified; PTR 3213 core; fluorescein amide, aminopentanoic linker; cyclic GlyS2* to GlyS2*; D-Trp; C-terminal amide
Human SST-R2 [1]
  IC50: 9 nM

B7: YS-1-70 (peptide)
chain: FGFWWKTFG
modifications: not fully specified; PTR 3219 core; 5-(aminothionyl)fluorescein-aminopentanoyl conjugate; cyclic GlyS2* to GlyS2*; D-Phe1, D-Trp; C-terminal amide
Human SST-R2 [2]
  IC50: 2.9 nM

B8: YS-1-62 (peptide)
chain: FGFWWKTFG
modifications: not fully specified; PTR 3219 core; 5-(aminothionyl)fluorescein-betaAla conjugate; cyclic GlyS2* to GlyS2*; D-Phe1, D-Trp; C-terminal amide
Human SST-R2 [2]
  IC50: 3 nM

B9: YS-1-76 (peptide)
chain: FGFWWKTFG
modifications: not fully specified; PTR 3219 core; fluorescein amide, aminohexanoic linker; cyclic GlyS2* to GlyS2*; D-Phe1, D-Trp; C-terminal amide
Human SST-R2 [1]
  IC50: 13 nM

B10: YS-1-68 (peptide)
chain: FGFWWKTFG
modifications: not fully specified; PTR 3219 core; 5- and 6-carboxyfluorescein-GABA conjugate; cyclic GlyS2* to GlyS2*; D-Phe1, D-Trp; C-terminal amide
Human SST-R2 [2]
  IC50: 5.7 nM

B11: YS-1-29 (peptide)
chain: XFWWKTFG
modifications: not fully specified; PTR 3173-NH2 core; X = GABA; fluorescein amide, aminopentanoic linker; backbone cyclic; D-Trp; C-terminal amide
Human SST-R2 [1]
  IC50: 32 nM

B12: PTR 1017A-01 (peptide)
chain: KXFWWKTFG
modifications: not fully specified; 5- and 6-carboxyfluorescein-Lys; X = GABA; backbone cyclic (GABA* to GlyC3*); D-Trp; C-terminal amide
Human SST-R2 [2]
  IC50: 13.2 nM

B13: YS-1-44 (peptide)
chain: GFWWKTFG
modifications: not fully specified; PTR 3213 core; fluorescein amide, betaAla linker; cyclic GlyS2* to GlyS2*; D-Trp; C-terminal amide
Human SST-R2 [1]
  IC50: 19 nM

B14: YS-1-64 (peptide)
chain: FGFWWKTFG
modifications: not fully specified; PTR 3219 core; 5- and 6-carboxyfluorescein-betaAla conjugate; cyclic GlyS2* to GlyS2*; D-Phe1, D-Trp; C-terminal amide
Human SST-R2 [2]
  IC50: 3.9 nM
